Laboratory results: patent publication US11130783B2, “CD40 targeted peptides and uses thereof” (Regents of the University of Minnesota, priority 2018, dated 2021)
“Also recorded” adds a separate entry of the source.

Tests used:
[1] = test system: B cells; test: Peptide blocking of B cell activation by recombinant hCD40L (MHC class II expression); assay type: cell-based, Rhesus macaques; settings: peptides at 30 μM, pre-incubation then recombinant hCD40L
Description: The ability of the newly identified peptides to block B cell activation by CD40L was analyzed in a peptide blocking study. Briefly, B cells were pre-incubated with newly identified peptides for 30 minutes before stimulation with rhCD40L. Activation of the B cells was analyzed by measuring the expression levels of MHC class II molecules on the cell surface by flow cytometry.
The ability of CD40-binding peptides 1-7 as listed in Table 1 to block B cell activation was assessed by analyzing the expression of MHC class II molecules on the B cell when subsequently incubated in the presence of recombinant hCD40L. Briefly, B cells were purified from 3 RM PBMC by magnetic sorting. B cells were incubated with peptides at 30 μM for 15 minutes at 37° C., then activated for 30 minutes with recombinant hCD40L, and then analyzed for expression of MHC class II by staining the cells with specific antibody. Stained cells were acquired on a 3-laser BD Canto II instrument (BD Bioscience). A minimum of 200,000 events were acquired with FACSDIVA 6.1.3. FACS analysis was performed with FlowJo Version 10 software.

[2] = test system: CD4, CD8 and CD20 cells; test: One-way CFSE mixed lymphocyte reaction (MLR), T and B cell proliferation; assay type: cell-based, Rhesus macaques; settings: peptides at 30 μM, 6 days, CFSE-low cells, PBMC from 5 RM
Description: The ability of the CD40 targeting peptides to block CD40-CD40L signaling and inhibit T and B cell proliferation was assessed in a one-way CFSE-MLR. Each of the FIGS. 3A-3E show results of CFSE-MLR performed on PBMC obtained from a different Rhesus monkey. […] The levels of T cell and B cell proliferation was 35-46% in all the 5 animals and for sake clarity was capped at 25% in the figure for better visualization.
In order to determine the functional effect of co-stimulation blockade with peptides targeting CD40, one-way mixed lymphocyte reactions (MLR) was performed. CFSE-labeled PBMC from 5 different RM were stimulated with irradiated PBMC for 6 days. Stimulation with PHA was used as positive control. […] The cells were incubated in the presence of peptides at 30 μM. Following stimulation, PBMC were stained with antibodies specific for CD4, CD8 and CD20 and proliferating cells were quantitated by determining the frequency of CFSE-low CD4, CD8 and CD20 cells. Stained cells were acquired on a 3-laser BD Canto II instrument (BD Bioscience). A minimum of 200,000 events were acquired with FACSDIVA 6.1.3. FACS analysis was performed with FlowJo Version 10 software.

[3] = biological target: T1, recombinant human CD40 (Homo sapiens, UniProt P25942); test: ELISA for specificity of peptide binding to CD40; settings: for affinity to bind to CD40 compared to the control Peptide 1: summary of the study; for binding affinity to CD40 by ELISA: FLAG-tagged rhsCD40 1 μg/ml, optical density at 450 nm
T1 construct: probed with FLAG-tagged rhsCD40 (1 μg/ml; Alexis); purchased Alexis
Description: Binding of the identified peptides to CD40 was analyzed by ELISA. Briefly, plates were coated with […] and then incubated with identified peptides and detected using Flag-tagged rhsCD40.
In order to confirm the specificity of the peptides to interfere with CD40:CD154 interaction, the specificity of peptides 1-7 as listed in table 1 to bind to human […] by ELISA was tested. Briefly, 96 well ELISA (Nunc Immunolon) plates were coated with the peptides in carbonate buffer. The wells are washed and probed with FLAG-tagged rhsCD40 (1 μg/ml; Alexis) and developed with HRP conjugated rabbit anti-FLAG antibody. The plates were washed and the enzymatic activity was determined using 3,3′,5,5′-tetramethyl-benzidine substrate for 15 minutes and the reaction was stopped by the addition of 2 M H2SO4, and optical density was measured at 450 nm, with the correction wavelength set at 620 nm.

[4] = biological target: T2, CD40 on mononuclear cells (Macaca mulatta, UniProt A0ACM8QRX8); test: Binding of fluorochrome tagged CD40 targeting peptides to PBMC by flow cytometry; parameters: species or system Rhesus macaques; settings: 5 μM fluorochrome tagged peptide, 30 minutes at 4° C.
T2 construct: peripheral blood mononuclear cells (PBMC) purified from 2 Rhesus macaques (RM); endogenous in cells; host or cells: PBMC from Rhesus macaques
Description: Binding of the CD40 targeting peptides was analyzed by incubating 5 μM of various fluorochrome tagged CD40 interacting peptides with PBMC from rhesus monkeys for 30 minutes at 4° C. and analyzed by flow cytometry.
In order to screen the ability of the cyclic peptides to bind to CD40, peripheral blood mononuclear cells (PBMC) purified from 2 Rhesus macaques (RM) were incubated with 5 μM of fluorochrome tagged CD40 interacting peptides, Peptide 1-7 listed in Table 1 for 30 minutes at 4° C. The cells were washed 3× in PBS and analyzed by flow cytometry. Stained cells were acquired on a 3-laser BD Canto II instrument (BD Bioscience). A minimum of 200,000 events were acquired with FACSDIVA 6.1.3. Mean fluorescence intensity of the peptide binding to the cells were determined using FlowJo 10.1. software (Tree Star; Ashland, OR, USA). […] 1-7 bind to the PBMC but at various intensities, confirming the ability of the synthetic peptides to bind to CD40 on mononuclear cells.

T1 sequence (P25942 21-193 limits assumed): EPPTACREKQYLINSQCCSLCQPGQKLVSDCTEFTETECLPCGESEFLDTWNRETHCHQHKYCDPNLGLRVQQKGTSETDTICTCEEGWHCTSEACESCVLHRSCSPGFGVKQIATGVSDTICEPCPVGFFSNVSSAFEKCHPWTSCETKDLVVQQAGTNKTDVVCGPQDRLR
T2 sequence (A0ACM8QRX8 21-278): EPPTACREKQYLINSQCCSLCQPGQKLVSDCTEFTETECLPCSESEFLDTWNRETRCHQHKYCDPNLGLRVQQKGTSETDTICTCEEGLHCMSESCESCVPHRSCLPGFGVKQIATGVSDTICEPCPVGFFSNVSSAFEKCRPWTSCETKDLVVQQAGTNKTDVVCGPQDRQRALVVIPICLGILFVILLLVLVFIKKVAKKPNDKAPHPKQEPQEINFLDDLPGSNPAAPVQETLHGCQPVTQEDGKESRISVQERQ

Sequence | affinity to bind to CD40 compared to the control Peptide 1 [3] | binding affinity to CD40 by ELISA [3] | binding to PBMC / mononuclear cells (mean fluorescence intensity) [4] | ability to block B cell activation (MHC class II expression) [1] | suppression of T and B cell (CD4, CD8, CD20) proliferation [2] | suppression of T and B cell (CD4, CD8, CD20) proliferation ([2]; listed as Peptide#2) | suppression of T and B cell (CD4, CD8, CD20) proliferation ([2]; listed as Peptide #3)
VLNWADKAYFTMSQN [Peptide 4] |  | lowest binding affinity |  |  |  |  | 
VLQWAEKGYYTMSNN [Peptide 1, reference compound] |  | high binding affinity | high binding affinity |  |  |  | 
VLQWAERGFYTTSNN [Peptide 2] | higher affinity | specific binding to human CD40 |  | complete abrogation of T and B cell proliferation as well as activation of B cells | higher efficacy compared to the other peptides; also recorded: complete abrogation of T and B cell proliferation | inhibited T and B cell proliferation significantly better than the CD40 targeting peptide identified earlier | 
VVQWAEKGFFTMSNN [Peptide 3] | higher affinity | specific binding to human CD40 | high binding affinity | complete abrogation of T and B cell proliferation as well as activation of B cells | higher efficacy compared to the other peptides; also recorded: complete abrogation of T and B cell proliferation |  | inhibited T and B cell proliferation significantly better than the CD40 targeting peptide identified earlier

The next lines start with results.

affinity to bind to CD40 compared to the control Peptide 1 [3] | binding affinity to CD40 by ELISA [3] | binding to PBMC / mononuclear cells (mean fluorescence intensity) [4] | Sequence | ability to block B cell activation (MHC class II expression) [1] | suppression of T and B cell (CD4, CD8, CD20) proliferation [2] | suppression of T and B cell (CD4, CD8, CD20) proliferation ([2]; listed as Peptide#2) | suppression of T and B cell (CD4, CD8, CD20) proliferation ([2]; listed as Peptide #3)
higher affinity |  |  | LVNWADKAFYTTSNN [Peptide 5] | complete abrogation of T and B cell proliferation as well as activation of B cells | complete abrogation of T and B cell proliferation |  | 
 | specific binding to human CD40 | least binding affinity | VVQWAEKGYYTMSQN [Peptide 7] |  |  |  | 
